Results from US11766432B2, “Cleavable conjugates of catechol compounds and water-soluble polymers and methods of treatment using the same” (SERINA THERAPEUTICS, INC., priority 2018, dated 2023).
Values joined by “and” are separate entries in the source; they are usually repeats but may differ in a detail not shown here. Equal entries are not always repeated. Structures can show the parent of a compound that is named as a salt. Where two headings read alike, the source gives them in different places.

Columns and labels:
[1] = female, cynomolgus monkey, in vivo, sc, 1.5 mg/kg
in vivo = conditions: female, cynomolgus monkey, sc, 1.5 mg/kg
skin at injection site [2] = conditions: for tolerability after SC injection: primates, single SC injection 1.5 mg/kg
[3] = single SC injection 1.5 mg/kg; for PR (percent of released apomorphine): AUC0-last(free) relative to AUC0-last(total); for PR (percent of released apomorphine) / AUC0-168 / AUC0-inf / AUC0-last / CL/F obs / Cmax / Tmax: mean; for time by which drug is cleared and BLQ / AUC0-168 / AUC0-inf / AUC0-last / CL/F obs / Cmax / Tmax: total apomorphine, plasma
skin at injection site [4] = conditions: for tolerability after SC injection: primates, SC injection 3.0 mg/kg (apomorphine equivalents), multiple doses; for skin at the site of injection 12 hours after the third dose (day 14): weekly SC injection 3.0 mg/kg (apomorphine equivalents)
Method: Non-naïve female cynomolgus monkeys were used in the study. […] They were assigned to three groups with 3 animals per group.
The test articles were dosed subcutaneously (as described in Table 6) in the right shoulder on days 0 and 14 and in the left shoulder on days 7 and 21, of each monkey. […] Photographs were taken to study the severity of the reactions and observations that were recorded.
To determine if the Apo-A, Apo-B, and Apo-G conjugates induced skin reactions at a concentration of 3.0 mg/kg (as compared to the 1.5 mg/kg dose described in Examples 18 and 20), all animals were/will be monitored daily for these skin reactions. Photographs were/will be taken to study the skin reactions and observations were/will be recorded. Bases on the presence of erythema and swelling, the skin reactions were/will be recorded as none, slight, well defined, moderate and severe.

[5] = Pharmacokinetics of free apomorphine in plasma after single SC infusion/injection; conditions: for dose dumping (burst effect): after single SC administration 1.5 mg/kg; for AUC0-168 / AUC0-inf / AUC0-last / Cmax / Tmax / time post-dose by which drug is completely cleared and below the limit of quantification (BLQ) / increase of Tmax as compared to apomorphine HCl / increase of t1/2z as compared to apomorphine HCl: free apomorphine, single SC 1.5 mg/kg; for AUC0-168 / AUC0-inf / AUC0-last / Cmax / Tmax / time post-dose by which drug is completely cleared and below the limit of quantification (BLQ): plasma; for AUC0-168 / AUC0-inf / AUC0-last / Cmax / Tmax: female monkeys, mean n=3; for period of sustained release of apomorphine: single SC injection 1.5 mg/kg, monkeys
[6] = single SC 1.5 mg/kg, per animal

Row | Molecule | PR (percent of released apomorphine) [3] | time by which drug is cleared and BLQ [3] | AUC0-168 [3] | AUC0-inf [3] | AUC0-last [3] | CL/F obs [3] | tolerability after SC injection (skin at injection site [4]) | skin at the site of injection 12 hours after the third dose (day 14) (skin at injection site [4]) | tolerability after SC injection (skin at injection site [2]) | Observations (skin reaction), Day 1 to Day 15 (skin at injection site [2]; [6]) | Observations (skin reaction), Day 15 (skin at injection site [2]; [6]) | dose dumping (burst effect) [5] | AUC0-168 [5] | AUC0-inf [5] | AUC0-last [5] | Cmax [5] | Tmax [5] | time post-dose by which drug is completely cleared and below the limit of quantification (BLQ) [5] | increase of Tmax as compared to apomorphine HCl [5] | increase of t1/2z as compared to apomorphine HCl [5] | also measured
1 | CN1CCc2cccc3c2[C@H]1Cc1ccc(O)c(O)c1-3 [apomorphine HCl, Apomorphine hydrochloride] |  |  |  |  |  |  |  |  |  |  |  |  |  |  |  |  |  |  |  |  | time post-dose by which drug is completely cleared and below the limit of quantification (BLQ) [1]: ≤ 24 h; AUC0-inf (in vivo): 90.2 ng·h/mL; CL/F (in vivo): 289 mL/min/kg; Cmax (in vivo): 10.6 ng/mL; Vd/F (in vivo): 43.6 L/kg; AUC(0-t) (in vivo; cynomolgus): 89.8 ng·h/mL; Cmax (in vivo; cynomolgus): ~10.6 ng/mL; Tmax (in vivo; cynomolgus): 4 h; Observations (skin reaction), Day 15 (skin at injection site [2]; female, cynomolgus monkey, in vivo, sc, 1.5 mg/kg, 15 day): Day 15: Skin appears normal.
2 | POZ10p20k[Apo(2-methylpropanoate)(4-triazolebutanoate)]10 [POZ-Apomorphine B] | 5.5% | > 240 h | 8317 ng·h/mL | 16456 ng·h/mL | 11610 ng·h/mL | 91 mL/h/kg | well tolerated | appeared normal with no sign of erythema and swelling | well tolerated | Day 1 to Day 15: No erythema and swelling. | Day 15: Skin appears normal. | no evidence of dose dumping | 478 ng·h/mL | 968 ng·h/mL | 640 ng·h/mL | 3.5 ng/mL | 104 h | > 240 h | 26 times | 84.3 times | Cmax ([3]; 1.5 mg/kg): 72.6 ng/mL and 72.7 ng/mL; Tmax ([3]; 1.5 mg/kg): 136.0 h; period of sustained release of apomorphine [5]: 10 days
3 | POZ10p20k[Apo(4-butanoate)(4-triazolebutanoate)]10 [POZ-Apomorphine A] | 4.8% | ≤ 240 h | 13368 ng·h/mL | 138986 ng·h/mL | 13835 ng·h/mL | 109 mL/h/kg | well tolerated | appeared normal with no sign of erythema and swelling | well tolerated | Day 1 to Day 15: No erythema and swelling. | Day 15: Skin appears normal. | no evidence of dose dumping | 647 ng·h/mL | 666 ng·h/mL | 656 ng·h/mL | 6.6 ng/mL | 88 h | ≤ 240 h | 22 times | 13.2 times | Cmax [3]: 151.3 ng/mL; Tmax [3]: 88 h; period of sustained release of apomorphine [5]: 5 days
